Here are results for 2 proteins from patent US8535928B2, “Protease and use thereof” (Osaka University, priority 2008, dated 2013).

Substrate in data set [1]: C[C@H](NC(=O)CCC(=O)O)C(=O)N[C@@H](C)C(=O)N1CCC[C@H]1C(=O)N[C@@H](Cc1ccccc1)C(=O)Nc1ccc([N+](=O)[O-])cc1
As to the kind of experiment: Rate parameters of Tk-SP with Suc-AAPF-pNA (Michaelis-Menten). Type of data set: biochemical, Thermococcus kodakaraensis KOD1. The following applies: substrate 0.01 to 2 mM. The procedure:
(§1) For examination of the pH dependence and the buffer dependence of the Tk-SP, enzyme reactions were performed using acetate buffers (pH 4.5, 5.0, 5.2, 5.4 and 5.6), MES buffers (pH 5.5, 6.0, 6.5 and 7.0), HEPES buffers (pH 7.0 and 7.5), Tris-HCl buffers (pH 7.0, 7.5, 8.0, 8.5 and 9.0), glycine-NaOH buffers (pH 8.5, 9.0, 9.5 and 10.0) and CAPS-NaOH buffers (pH 9.0, 9.5, 10.0, 10.5, 11.0 and 11.5) in the following procedure. 100 μl of a reaction mixture containing a 50 mM buffer and 2 mM Suc-AAPF-pNA (synthetic substrate) was incubated at 20° C. for 5 minutes. To this, 0.1 μg of the Tk-SP was added and the reaction mixture was further incubated at 20° C. for 10 minutes. The reaction was stopped by addition of 10 μl of acetic acid, and then the amount of p-nitroaniline produced from the synthetic substrate Suc-AAPF-pNA was determined by use of the absorption coefficient of 8900 M^−1 cm^−1 from the absorbance at 410 nm in an ultraviolet spectrophotometer (Beckman model DU640). The amount of the enzyme which catalyzes the production of 1 μmol of p-nitroaniline per minute was defined as “one unit.” The enzyme activity per milligram of the protein was defined as specific activity.
(§2) By use of, as a substrate, Suc-AAPF-pNA at various concentrations ranging from 0.01 to 2 mM, the specific activity of the Tk-SP was measured at 20 and 80° C. The measurement procedure was the same as that of Example 2. The obtained values were applied to the Michaelis-Menten equation for calculation of the rate parameters. For comparison, the specific activity of a known thermostable protease, Tk-subtilisin (see nonpatent literature 1) was similarly measured and then the rate parameters thereof were calculated.

Substrate in data set [2]: C[C@H](NC(=O)CCC(=O)O)C(=O)N[C@@H](C)C(=O)N1CCC[C@H]1C(=O)N[C@@H](Cc1ccccc1)C(=O)Nc1ccc([N+](=O)[O-])cc1
As to the kind of experiment: Rate parameters of Tk-subtilisin with Suc-AAPF-pNA (Michaelis-Menten), comparison. It counts as biochemical, Thermococcus kodakaraensis KOD1. To be noted: substrate 0.01 to 2 mM. The procedure:
as §1, §2

B1: Thermococcus kodakaraensis KOD1 protease Tk-SP (mature subtilisin-like serine protease, SEQ ID NO: 1 or SEQ ID NO: 3) (Thermococcus kodakarensis KOD1) (protein)
chain: VETEGLDESAAQVMATNMWNLGYDGSGITIGIIDTGIDASHPDLQGKVIGWVDFVNGKTTPYDDNGHGTHVASIAAGTGAASNGKYKGMAPGAKLVGIKVLNGQGSGSISDIINGVDWAVQNKDKYGIKVINLSLGSSQSSDGTDSLSQAVNNAWDAGLVVVVAAGNSGPNKYTVGSPAAASKVITVGAVDKYDVITDFSSRGPTADNRLKPEVVAPGNWIIAARASGTSMGQPINDYYTAAPGTSMATPHVAGIAALLLQAHPSWTPDKVKTALIETADIVKPDEIADIAYGAGRVNAYKAAYYDNYAKLTFTGYVSNKGSQSHQFTISGAGFVTATLYWDNSGSDLDLYLYDPNGNQVDYSYTAYYGFEKVGYYNPTAGTWTIKVVSYSGSANYQVDVVSDGSLGQPSGGGSEPSPSPSPEPTV
notes: C-terminus at 562 or 563
For the protein B1, in data set [1] (other: 20° C., 20.0 °C), the Km – broadly, the concentration of substrate that gives half-maximal velocity – stood at 117 µM; the Vmax came out at 2.312 U/mg; the kcat amounted to 1.704 S^−1. Moreover, in data set [1] (other: 80° C., 80.0 °C), the Km worked out at 416 µM, the Vmax came to 34.84 U/mg and the kcat was 25.668 S^−1.

B2: Thermococcus kodakaraensis KOD1 Tk-subtilisin (Tk-sub) (Thermococcus kodakarensis KOD1) (protein)
chain: GKPSWLGGGSTQPAQTIPWGIERVKAPSVWSITDGSVSVIQVAVLDTGVDYDHPDLAANIAWCVSTLRGKVSTKLRDCADQNGHGTHVIGTIAALNNDIGVVGVAPGVQIYSVRVLDARGSGSYSDIAIGIEQAILGPDGVADKDGDGIIAGDPDDDAAEVISMSLGGPADDSYLYDMIIQAYNAGIVIVAASGNEGAPSPSYPAAYPEVIAVGAIDSNDNIASFSNRQPEVSAPGVDILSTYPDDSYETLMGTSMATPHVSGVVALIQAAYYQKYGKILPVGTFDDISKNTVRGILHITADDLGPTGWDADYGYGVVRAALAVQAALG
Consider B2, for which, in data set [2] (other: 20° C., 20.0 °C), the Km was 4000 µM, the Vmax is given as 38.00 U/mg and the kcat came out at 26.00 S^−1. Moreover, in data set [2] (other: 80° C., 80.0 °C), the Km was found to be 8000 µM, the Vmax was found to be 420.00 U/mg and the kcat was determined as 290.00 S^−1.
